Test results taken from patent US20140235698A1, “RNA Aptamer Specifically Binding to Carcinoembryonic Antigen and Use thereof” (POSCO, published 2014).

Experiments:
[1] = target: DR5 cloned in the pVP16 vector as an activation-domain fusion (UniProt O14763); test: cell-based or functional assay
[2] = target: T1, ACEA (CEA/CEACAM5 A1 domain to B3 domain, N domain deleted) (Homo sapiens, UniProt P06731 P06731:145-675); test: SPR; Biacore 2000; settings: tags: pET28a(+), Ni-NTA (His), E. coli BL21
Experimental: (§1) To measure the affinity of RNA aptamer to CEA, SPR analysis was performed with Biacore 2000 (GE healthcare) device. Various concentrations of RNAs (Trunc. GROUP 1-1 & 1-2 and Mutant GROUP 1-1 & 1-2, Loop-only, Library) were flowed on NCEA and ACEA to measure the binding affinity, which is shown in the following TABLE 4 and FIG. 4.

[3] = target: T2, NCEA (CEA/CEACAM5 N domain to B3 domain) (Homo sapiens, UniProt P06731 P06731:35-675); test: SPR; Biacore 2000; loop mutant, weakened or no binding per text; settings: tags: pET28a(+), Ni-NTA (His), E. coli BL21
Experimental: as §1

[4] = target: T1, ACEA (CEA/CEACAM5 A1 domain to B3 …); test: SPR; Biacore 2000; GROUP I member tested not specified (SEQ 1-12); settings: tags: pET28a(+), Ni-NTA (His), E. coli BL21
Experimental: (§2) To measure the affinity of RNA to CEA, SPR analysis was performed with Biacore 2000 (GE healthcare) device. Various concentrations of RNAs (GROUP 1, 2, 3 and library in FIG. 2) were flowed on NCEA and ACEA to measure the binding affinity.
(§3) The above value is measured using BIAevaluation program (which is used to analyze graph obtained from BIAcore device).

[5] = target: T2, NCEA (CEA/CEACAM5 N domain to B3 domain); test: as above; settings: tags: pET28a(+), Ni-NTA (His), E. coli BL21
Experimental: as §2, §3

[6] = target: T2, NCEA (CEA/CEACAM5 N domain to B3 domain); test: SPR; Biacore 2000; settings: tags: pET28a(+), Ni-NTA (His), E. coli BL21; hairpin-loop (predicted)
Experimental: as §1

T2 sequence (P06731 35-675, one chain of several): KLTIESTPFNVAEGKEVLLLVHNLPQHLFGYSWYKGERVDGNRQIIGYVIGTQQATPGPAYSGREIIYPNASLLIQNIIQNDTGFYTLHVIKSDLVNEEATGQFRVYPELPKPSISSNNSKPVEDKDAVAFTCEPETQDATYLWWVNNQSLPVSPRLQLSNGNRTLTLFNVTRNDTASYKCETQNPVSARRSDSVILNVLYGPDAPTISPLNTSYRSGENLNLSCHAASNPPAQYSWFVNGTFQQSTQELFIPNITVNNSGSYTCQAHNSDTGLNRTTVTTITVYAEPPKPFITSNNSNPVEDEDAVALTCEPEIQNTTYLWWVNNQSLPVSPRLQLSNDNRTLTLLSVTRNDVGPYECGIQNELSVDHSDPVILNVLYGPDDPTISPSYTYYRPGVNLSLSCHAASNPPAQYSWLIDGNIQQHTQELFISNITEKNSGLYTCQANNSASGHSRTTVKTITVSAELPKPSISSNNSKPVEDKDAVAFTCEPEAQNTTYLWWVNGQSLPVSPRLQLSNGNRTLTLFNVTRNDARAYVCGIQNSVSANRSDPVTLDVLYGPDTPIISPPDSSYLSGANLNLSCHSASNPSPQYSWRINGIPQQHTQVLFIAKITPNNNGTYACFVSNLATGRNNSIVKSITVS
T1 sequence (P06731 145-675, stated change not applied, one chain of several): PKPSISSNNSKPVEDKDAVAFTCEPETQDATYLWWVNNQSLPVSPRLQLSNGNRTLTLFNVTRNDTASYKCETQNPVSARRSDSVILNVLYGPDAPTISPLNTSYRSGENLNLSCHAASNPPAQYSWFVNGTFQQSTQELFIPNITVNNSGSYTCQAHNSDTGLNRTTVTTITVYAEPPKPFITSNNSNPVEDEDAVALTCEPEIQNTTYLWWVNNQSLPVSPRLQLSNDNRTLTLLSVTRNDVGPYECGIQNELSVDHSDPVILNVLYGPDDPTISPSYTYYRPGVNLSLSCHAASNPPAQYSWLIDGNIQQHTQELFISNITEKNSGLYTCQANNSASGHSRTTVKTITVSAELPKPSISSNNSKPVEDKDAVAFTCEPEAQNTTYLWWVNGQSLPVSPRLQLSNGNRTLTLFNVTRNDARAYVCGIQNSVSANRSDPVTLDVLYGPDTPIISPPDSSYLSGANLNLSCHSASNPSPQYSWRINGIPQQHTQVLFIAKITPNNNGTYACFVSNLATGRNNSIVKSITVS

NCEA (protein consisting of N domain to B3 domain of CEA, CEACAM5) cloned in the pM vector as a GAL4 DNA-BD fusion (from UniProt P04386 1-147; P06731 35-676)
SEAP activity in the medium of transfected cells (mammalian two-hybrid system) [1]: 2.5 fold

GUGCUGGGCUAGGGCGGCGGCGGGAAAACCAGUAC (ssRNA, 2'-F pyrimidines (C and U)) [Mutant GROUP 1-2 (m19-2)]
Kd [2]: 630 nM | Kd [3]: 420 nM

GCGGAAGCGUGCUGGGCUAGGGCGGCGGCGGGAAAACCAGUACUUUCGU (ssRNA, 2'-F pyrimidines (C and U)) [Mutant GROUP 1-1 (m19-1, mutant YJ-1)]
Kd [2]: 790 nM | Kd [3]: 1300 nM

GGCUAGAAUAAUAAUAAGAAAAC (ssRNA, 2'-F pyrimidines (C and U)) [Loop only]
Kd [2]: 1100 nM

B1: GROUP I RNA aptamer (ssRNA)
RNA: GGGAGAGCGGAAGCGUGCUGGGCUAGAAUAAUAAUAAGAAAACCAGUACUUUCGUGUCCCGGGAGGGUGCAUAACCCAGAGGUCGAUGGAUCC
modifications: 2'-F pyrimidines (C and U)
Kd [4]: 3.22 nM | Kd [5]: 0.313 nM

GCGGAAGCGUGCUGGGCUAGAAUAAUAAUAAGAAAACCAGUACUUUCGU (ssRNA, 2'-F pyrimidines (C and U)) [Truncated GROUP 1-1 (19-1, YJ-1)]
Kd ([2]; hairpin-loop (predicted)): 600 nM | Kd [6]: 0.77 nM

GUGCUGGGCUAGAAUAAUAAUAAGAAAACCAGUAC (ssRNA, 2'-F pyrimidines (C and U)) [Truncated GROUP 1-2 (19-2)]
Kd ([2]; hairpin-loop (predicted)): 590 nM | Kd [6]: 4 nM
